Values quoted from earlier work as cited in publication PMC3022668.

Biological target: streptavidin (Streptomyces avidinii) (UniProt P22629)

Kd: 2.5 nM
Substance: streptavidin-binding peptide (SBP)
